The chains are these.
T1: MdNAC104 (Malus domestica (apple)?, UniProt D9ZJ88 1-204)
T1 sequence: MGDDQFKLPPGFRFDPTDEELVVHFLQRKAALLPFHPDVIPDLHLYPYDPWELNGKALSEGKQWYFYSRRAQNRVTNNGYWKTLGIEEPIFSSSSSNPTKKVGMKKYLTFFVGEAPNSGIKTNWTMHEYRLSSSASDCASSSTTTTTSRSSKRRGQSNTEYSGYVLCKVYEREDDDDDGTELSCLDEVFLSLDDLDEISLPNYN

B1: MdGAD1 mutant probe 1 (dsDNA)
DNA 1: GCGCTGCACCTAAAAATTCCATTTCTGGAC
DNA 2: GTCCAGAAATGGAATTTTTAGGTGCAGCGC
B2: MdGAD1 mutant probe 3 (dsDNA)
DNA 1: AAAAAATGGGGCAAAATGGGCTTCACTGTC
DNA 2: GACAGTGAAGCCCATTTTGCCCCATTTTTT
B3: MdGAD1 mutant probe 2 (dsDNA)
DNA 1: CAAACCATTTGCAAAATCCTTAAAGCGATT
DNA 2: AATCGCTTTAAGGATTTTGCAAATGGTTTG
B4: MdGAD1 probe 3 (dsDNA)
DNA 1: AAAAAATGGGGCCACGTGGGCTTCACTGTC
DNA 2: GACAGTGAAGCCCACGTGGCCCCATTTTTT
B5: MdGAD1 probe 1 (dsDNA)
DNA 1: GCGCTGCACCTACACGTTCCATTTCTGGAC
DNA 2: GTCCAGAAATGGAACGTGTAGGTGCAGCGC
B6: MdALMT13 probe 4 (dsDNA)
DNA 1: ATGTATATATAAACACGATATCTCCCTTCC
DNA 2: GGAAGGGAGATATCGTGTTTATATATACAT
B7: MdGAD1 probe 2 (dsDNA)
DNA 1: CAAACCATTTGCCACGTCCTTAAAGCGATT
DNA 2: AATCGCTTTAAGGACGTGGCAAATGGTTTG
B8: MdALMT13 probe 2 (dsDNA)
DNA 1: CTTATTTCAAAAACACGGGTGAACAGTAAA
DNA 2: TTTACTGTTCACCCGTGTTTTTGAAATAAG
B9: MdALMT13 probe 3 (dsDNA)
DNA 1: CTTTTGCATTCAGCACGCACTCGCAAAACC
DNA 2: GGTTTTGCGAGTGCGTGCTGAATGCAAAAG

One data set has as its target T1, MdNAC104. The experiment in a line: EMSA; LightShift Chemiluminescent EMSA Kit (Thermo) per manufacturer; buffer, salt, pH and temperature not stated. As to conditions: protein: recombinant; tags: His (pET-32a vector); blunt. On the technique in general: A gel shift assay detects complexes by their altered migration in electrophoresis.
On to B1, for which the binding result is “no binding”.

Turning to B2, the binding result is recorded as “no binding”.

With B3, the binding result is “no binding”.

The same data set, now with this note: protein: recombinant; tags: His (pET-32a vector); label: 5' biotin; blunt.
B4: the binding result is recorded as “binds”.

On to B5, for which the binding result is reported as “binds”.

As for B6, the binding result is given as “binds”.

For the molecule B7, the binding result is reported as “binds”.

In the case of B8, the binding result is recorded as “binds”.

For the molecule B9, the binding result was “binds”.
